The results in this text go back to patent US20230383005A1 (University of California, published 2023).

The Kd is the free concentration of one partner at which half of the binding sites on the other are occupied at equilibrium, for simple one-to-one binding. One may read the kon as the second-order rate constant of association.

Assay [1] deals with human CD46 on the surface of living multiple myeloma cells (human), P15529. In words: cell-based or functional assay.
The target of assay [2] is human CD46 on the surface of living multiple myeloma cells (human) (UniProt P15529). In words: FACS on living MM1.S cells, MFI fitted with a one-site specific binding model.
Assay [3] concerns the target T1, recombinant CD46-Fc fusion (human CD46 domains 1 and 2) (human, UniProt P15529 35-159).
T1 construct: domain: domains 1 and 2; also called recombinant human CD46 protein fragment; recombinant CD46-Fc (domains 1 and 2); not shown: Fc from the pFUSE-Fc vector (Invivogen)
T1 sequence (looked up): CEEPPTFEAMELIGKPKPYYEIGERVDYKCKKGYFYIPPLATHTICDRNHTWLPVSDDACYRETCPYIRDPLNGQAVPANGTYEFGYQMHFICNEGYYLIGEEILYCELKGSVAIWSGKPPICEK
The assay is described as follows: BLItz biolayer interferometry, biosensor coated with YS5 IgG1, CD46-Fc at 100 to 400 nM; one value for all four runs. (BLI is a label-free optical method that tracks binding on a fibre tip over time.)

Assay [4] has as its target human CD46 on the surface of living multiple myeloma cells (human) (UniProt P15529). The assay is described as follows: FACS on living RPMI8226 cells, MFI fitted with a one-site specific binding model.
Assay [5] deals with T1, recombinant CD46-Fc fusion (human CD46 …). In words: BLItz label-free biosensor (ForteBio), sensor coated with YS5 IgG1, CD46-Fc (domains 1 and 2) in solution.

B1: CD46-ADC (anti-CD46 IgG1 YS5 conjugated to MMAF via the mcvcpab linker) (antibody, V domains shown)
VH: QVQLVQSGGGVVQPGRSLRLACAASGLTVNNYAMHWVRQAPGKGLEWVAVISYDGNNKYYADSVKGRFTISRDNSKNTLYLQMNSLRAEDTAVYYCAKGGGYFDLWGRGTLVTVSS
VL: QSVLTQPPSVSGAPGQRVTISCTGSSSNIGAGYDVHWYQQLPGTAPKLLIYGNNNRPSGVPDRFSGSKSGTSASLAITGLQAEDEADYYCSSYTSGTWLFGGGTKLTVL
modifications: here or on the partner: mcvcpab-MMAF on cysteines freed by TCEP reduction; average drug per antibody 3.3; sites not stated
Consider B1, for which, in assay [1], the EC50, killing of primary MM patient cells at 48 hours (Annexin V/PI FACS) was < 10 nM; the EC50, viability of MM1.S alone (luciferase, 96 hours) was found to be 2.25 nM; the EC50, viability of MM1.S in the presence of BM61 stromal cells amounted to 1.05 nM; the EC50, viability of MM1.S in the presence of HS5 stromal cells turned out to be 0.77 nM. Moreover, the EC50, viability of MM1.S in the presence of HS27A stromal cells in assay [1] is 0.92 nM.

B2: YS5 IgG1 (full-length human anti-CD46 IgG1) (antibody, V domains shown)
VH: B1 VH
VL: B1 VL
notes: also called anti-CD46 antibody; CD46 antibody
With B2, the Kd in assay [2] stood at 2.24 nM; in assay [4], 1.19 nM; in assay [5], 2.99 nM. Besides, the association rate constant (kon) in assay [3] turned out to be 88000 M⁻¹ s⁻¹.
